Laboratory results: patent publication US12427210B2, “Compounds comprising a fibroblast activation protein ligand and use thereof” (priority 2019, dated 2025)

Key:
[1] = target: Ubiquitin carboxyl-terminal hydrolase 14 (Homo sapiens (Human)) (UniProt P54578)
[2] = target: Cathepsin B (Homo sapiens (Human)) (UniProt P07858)
[3] = target: T1, Cathepsin F (Homo sapiens (Human)) (UniProt Q9UBX1)
T1 sequence: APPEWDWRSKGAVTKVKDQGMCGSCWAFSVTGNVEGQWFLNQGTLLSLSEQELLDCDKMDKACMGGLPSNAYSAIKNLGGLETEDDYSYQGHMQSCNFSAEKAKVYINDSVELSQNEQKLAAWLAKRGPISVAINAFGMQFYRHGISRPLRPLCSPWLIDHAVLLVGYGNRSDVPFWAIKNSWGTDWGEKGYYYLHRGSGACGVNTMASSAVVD

[4] = target: DPP9 (Homo sapiens (Human)) (UniProt Q86TI2)
[5] = target: T2, A20 (Homo sapiens (Human)) (UniProt P21580)
T2 sequence: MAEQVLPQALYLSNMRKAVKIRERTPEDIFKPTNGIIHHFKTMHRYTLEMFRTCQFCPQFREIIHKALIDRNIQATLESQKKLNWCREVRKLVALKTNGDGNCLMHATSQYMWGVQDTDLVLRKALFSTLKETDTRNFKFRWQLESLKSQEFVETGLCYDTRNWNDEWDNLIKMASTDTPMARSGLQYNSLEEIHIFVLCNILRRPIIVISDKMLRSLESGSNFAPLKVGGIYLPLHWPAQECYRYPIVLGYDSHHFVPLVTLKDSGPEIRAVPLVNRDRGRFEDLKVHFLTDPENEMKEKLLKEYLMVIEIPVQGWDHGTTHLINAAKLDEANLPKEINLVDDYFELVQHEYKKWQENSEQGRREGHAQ

[6] = target: DPP7 (Homo sapiens (Human)) (UniProt Q9UHL4)
[7] = target: serine protease NS3 (a.a. 3-181) from Hepatitis C virus genotype 1b (mutant R155K) (Hepatitis C virus genotype 1b)
[8] = target: Matrix metalloprotease 9 (mutant Q279R) (Homo sapiens (Human)) (UniProt P14780)
[9] = target: serine protease NS3 (a.a. 3-181) from Hepatitis C virus genotype 1b (mutant R155Q) (Hepatitis C virus genotype 1b)
[10] = target: Ubiquitin carboxy-terminal hydrolase L1 (Homo sapiens (Human)) (UniProt P09936)
[11] = target: Ubiquitin carboxyl-terminal hydrolase 8 (Homo sapiens (Human)) (UniProt P40818)
[12] = target: Matrix metalloprotease1 (Homo sapiens (Human)) (UniProt P03956)
Chain of Matrix metalloprotease1 (Homo sapiens (Human)) (P03956 100-469): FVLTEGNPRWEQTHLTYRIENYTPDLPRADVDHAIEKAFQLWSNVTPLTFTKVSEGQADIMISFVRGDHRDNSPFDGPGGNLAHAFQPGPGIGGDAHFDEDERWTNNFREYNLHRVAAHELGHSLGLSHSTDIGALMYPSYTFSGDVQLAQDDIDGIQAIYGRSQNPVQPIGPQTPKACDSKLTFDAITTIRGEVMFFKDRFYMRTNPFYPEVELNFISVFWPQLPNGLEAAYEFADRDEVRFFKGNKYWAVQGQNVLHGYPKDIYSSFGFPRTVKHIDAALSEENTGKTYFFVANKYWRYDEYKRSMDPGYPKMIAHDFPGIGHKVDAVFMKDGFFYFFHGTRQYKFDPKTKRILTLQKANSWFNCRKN

[13] = target: Caspase-9 (Homo sapiens (Human)) (UniProt P55211)
Chain of Caspase-9 (Homo sapiens (Human)) (P55211 whole entry): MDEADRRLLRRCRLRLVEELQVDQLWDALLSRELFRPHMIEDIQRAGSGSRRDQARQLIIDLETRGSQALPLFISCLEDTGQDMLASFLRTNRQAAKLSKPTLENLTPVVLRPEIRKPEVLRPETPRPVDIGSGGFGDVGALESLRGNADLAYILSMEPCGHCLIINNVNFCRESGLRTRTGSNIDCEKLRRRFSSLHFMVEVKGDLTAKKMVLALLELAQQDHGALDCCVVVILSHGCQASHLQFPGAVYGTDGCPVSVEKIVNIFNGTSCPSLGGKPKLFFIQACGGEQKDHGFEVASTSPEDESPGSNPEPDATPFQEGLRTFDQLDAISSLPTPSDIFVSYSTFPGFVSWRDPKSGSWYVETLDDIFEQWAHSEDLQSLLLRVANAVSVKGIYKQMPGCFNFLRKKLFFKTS

[14] = target: serine protease NS3 (a.a. 3-181) from Hepatitis C virus genotype 1a (mutant D168V) (Hepatitis C virus genotype 1a)
[15] = target: FAP (enzyme of the specificity protease screening) (Homo sapiens (Human)) (UniProt Q12884)
Chain of FAP (enzyme of the specificity protease screening) (Homo sapiens (Human)) (Q12884 26-760 limits assumed): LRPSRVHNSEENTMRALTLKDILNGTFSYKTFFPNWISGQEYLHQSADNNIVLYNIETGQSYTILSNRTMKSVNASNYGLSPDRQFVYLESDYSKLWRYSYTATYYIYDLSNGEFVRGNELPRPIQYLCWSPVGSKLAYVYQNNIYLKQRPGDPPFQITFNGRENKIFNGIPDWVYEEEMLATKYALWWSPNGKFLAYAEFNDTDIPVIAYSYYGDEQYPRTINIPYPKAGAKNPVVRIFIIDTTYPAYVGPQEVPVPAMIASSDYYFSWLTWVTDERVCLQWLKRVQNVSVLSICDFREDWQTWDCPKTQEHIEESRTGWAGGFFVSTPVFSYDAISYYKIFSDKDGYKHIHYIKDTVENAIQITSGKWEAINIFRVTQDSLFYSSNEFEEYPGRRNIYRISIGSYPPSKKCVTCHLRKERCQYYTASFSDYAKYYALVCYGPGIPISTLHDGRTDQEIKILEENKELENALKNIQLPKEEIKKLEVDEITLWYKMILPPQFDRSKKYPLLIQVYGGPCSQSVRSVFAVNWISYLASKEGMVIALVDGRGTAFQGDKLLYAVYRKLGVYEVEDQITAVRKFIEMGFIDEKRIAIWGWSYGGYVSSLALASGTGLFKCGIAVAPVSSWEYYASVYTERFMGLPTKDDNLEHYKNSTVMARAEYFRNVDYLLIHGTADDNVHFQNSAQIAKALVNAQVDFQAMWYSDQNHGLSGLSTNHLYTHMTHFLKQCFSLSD

[16] = target: T3, Renin (Homo sapiens (Human)) (UniProt P00797)
T3 sequence: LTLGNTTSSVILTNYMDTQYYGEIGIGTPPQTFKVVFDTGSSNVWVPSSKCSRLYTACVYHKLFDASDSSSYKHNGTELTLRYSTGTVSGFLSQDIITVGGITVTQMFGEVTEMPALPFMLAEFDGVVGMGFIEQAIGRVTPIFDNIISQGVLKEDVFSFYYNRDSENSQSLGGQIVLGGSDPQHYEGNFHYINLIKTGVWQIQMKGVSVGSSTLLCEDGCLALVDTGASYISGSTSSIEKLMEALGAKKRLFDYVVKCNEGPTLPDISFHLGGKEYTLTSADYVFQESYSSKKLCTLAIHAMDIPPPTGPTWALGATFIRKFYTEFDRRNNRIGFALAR

[17] = target: Beta secretase (Homo sapiens (Human)) (UniProt P56817)
[18] = target: Ubiquitin carboxyl-terminal hydrolase 10 (Homo sapiens (Human)) (UniProt Q14694)
Chain of Ubiquitin carboxyl-terminal hydrolase 10 (Homo sapiens (Human)) (Q14694 whole entry): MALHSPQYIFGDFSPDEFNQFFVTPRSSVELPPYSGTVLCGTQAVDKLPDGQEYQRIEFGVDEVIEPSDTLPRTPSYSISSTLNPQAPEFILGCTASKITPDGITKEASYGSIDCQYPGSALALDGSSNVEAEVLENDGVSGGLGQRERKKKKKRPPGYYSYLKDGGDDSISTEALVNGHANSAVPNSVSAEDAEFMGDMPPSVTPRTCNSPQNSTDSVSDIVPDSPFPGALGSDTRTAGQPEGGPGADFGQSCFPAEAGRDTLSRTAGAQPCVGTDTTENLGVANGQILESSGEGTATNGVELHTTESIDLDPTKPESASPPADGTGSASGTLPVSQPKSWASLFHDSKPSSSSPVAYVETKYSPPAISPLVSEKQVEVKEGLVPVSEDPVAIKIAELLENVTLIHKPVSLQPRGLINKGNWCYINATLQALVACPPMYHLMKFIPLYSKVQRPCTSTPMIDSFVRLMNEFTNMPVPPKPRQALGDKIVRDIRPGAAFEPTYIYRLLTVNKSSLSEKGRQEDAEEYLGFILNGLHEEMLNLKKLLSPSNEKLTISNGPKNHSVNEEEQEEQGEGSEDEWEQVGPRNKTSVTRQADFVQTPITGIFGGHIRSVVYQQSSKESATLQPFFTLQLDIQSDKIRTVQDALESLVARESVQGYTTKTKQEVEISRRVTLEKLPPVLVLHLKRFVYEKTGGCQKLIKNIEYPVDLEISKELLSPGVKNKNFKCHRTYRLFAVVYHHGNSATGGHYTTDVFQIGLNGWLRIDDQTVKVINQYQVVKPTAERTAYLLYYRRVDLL

[19] = target: T4, Caspase-3 (Homo sapiens (Human)) (UniProt P42574)
T4 sequence: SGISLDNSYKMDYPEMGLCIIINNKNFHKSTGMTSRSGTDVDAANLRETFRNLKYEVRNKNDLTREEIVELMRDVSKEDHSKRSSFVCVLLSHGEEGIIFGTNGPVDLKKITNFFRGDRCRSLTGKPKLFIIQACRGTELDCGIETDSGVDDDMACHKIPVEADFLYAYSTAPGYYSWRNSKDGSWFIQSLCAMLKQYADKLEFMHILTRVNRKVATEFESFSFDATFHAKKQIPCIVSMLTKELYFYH

[20] = target: Matrix metalloprotease 2 (Homo sapiens (Human)) (UniProt P08253)
Chain of Matrix metalloprotease 2 (Homo sapiens (Human)) (P08253 110-660): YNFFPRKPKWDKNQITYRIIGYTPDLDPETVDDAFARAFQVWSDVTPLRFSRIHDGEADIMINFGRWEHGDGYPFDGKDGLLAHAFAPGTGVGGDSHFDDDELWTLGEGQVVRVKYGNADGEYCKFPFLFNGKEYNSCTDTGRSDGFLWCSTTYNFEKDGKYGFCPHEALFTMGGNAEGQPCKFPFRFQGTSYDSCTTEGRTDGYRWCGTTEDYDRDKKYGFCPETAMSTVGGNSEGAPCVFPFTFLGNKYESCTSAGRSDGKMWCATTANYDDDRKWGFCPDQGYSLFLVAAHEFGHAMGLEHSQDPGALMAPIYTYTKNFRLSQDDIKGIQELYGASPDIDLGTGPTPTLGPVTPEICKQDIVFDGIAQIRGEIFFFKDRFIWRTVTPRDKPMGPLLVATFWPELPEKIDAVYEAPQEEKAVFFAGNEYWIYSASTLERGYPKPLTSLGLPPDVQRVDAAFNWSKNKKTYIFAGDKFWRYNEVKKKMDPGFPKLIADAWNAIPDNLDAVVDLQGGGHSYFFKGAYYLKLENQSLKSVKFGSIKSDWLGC

[21] = target: Activated Protein C (Homo sapiens (Human)) (UniProt P04070)
[22] = target: T5, Caspase-6 (Homo sapiens (Human)) (UniProt P55212)
T5 sequence: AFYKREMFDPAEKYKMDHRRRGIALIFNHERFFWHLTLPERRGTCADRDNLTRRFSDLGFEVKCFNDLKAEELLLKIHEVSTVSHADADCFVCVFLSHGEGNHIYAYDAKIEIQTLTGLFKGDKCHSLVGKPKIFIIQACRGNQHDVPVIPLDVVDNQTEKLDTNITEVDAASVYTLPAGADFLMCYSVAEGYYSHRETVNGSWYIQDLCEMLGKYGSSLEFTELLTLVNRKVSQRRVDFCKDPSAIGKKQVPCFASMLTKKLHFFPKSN

[23] = target: T6, Deubiquitinase OTUD6B (Homo sapiens (Human)) (UniProt Q8N6M0)
T6 sequence: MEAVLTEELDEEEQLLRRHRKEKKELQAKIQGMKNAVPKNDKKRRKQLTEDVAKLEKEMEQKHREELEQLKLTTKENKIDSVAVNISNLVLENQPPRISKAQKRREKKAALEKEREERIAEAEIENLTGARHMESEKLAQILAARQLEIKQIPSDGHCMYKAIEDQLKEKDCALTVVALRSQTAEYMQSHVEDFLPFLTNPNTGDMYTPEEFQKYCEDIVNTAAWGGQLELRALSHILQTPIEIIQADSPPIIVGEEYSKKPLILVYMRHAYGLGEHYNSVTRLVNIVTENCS

[24] = target: Caspase-8 (Homo sapiens (Human)) (UniProt Q14790)
Chain of Caspase-8 (Homo sapiens (Human)) (Q14790 217-479 limits assumed): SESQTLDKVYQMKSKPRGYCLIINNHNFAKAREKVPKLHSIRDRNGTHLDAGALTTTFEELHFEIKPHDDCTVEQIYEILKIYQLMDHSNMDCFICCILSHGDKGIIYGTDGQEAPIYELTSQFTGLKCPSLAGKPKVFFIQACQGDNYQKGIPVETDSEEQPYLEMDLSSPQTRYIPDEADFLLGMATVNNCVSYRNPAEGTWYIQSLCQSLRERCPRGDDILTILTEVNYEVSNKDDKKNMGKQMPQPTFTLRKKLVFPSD

[25] = target: Ubiquitin carboxyl-terminal hydrolase 5 (Homo sapiens (Human)) (UniProt P45974)
Chain of Ubiquitin carboxyl-terminal hydrolase 5 (Homo sapiens (Human)) (P45974 whole entry): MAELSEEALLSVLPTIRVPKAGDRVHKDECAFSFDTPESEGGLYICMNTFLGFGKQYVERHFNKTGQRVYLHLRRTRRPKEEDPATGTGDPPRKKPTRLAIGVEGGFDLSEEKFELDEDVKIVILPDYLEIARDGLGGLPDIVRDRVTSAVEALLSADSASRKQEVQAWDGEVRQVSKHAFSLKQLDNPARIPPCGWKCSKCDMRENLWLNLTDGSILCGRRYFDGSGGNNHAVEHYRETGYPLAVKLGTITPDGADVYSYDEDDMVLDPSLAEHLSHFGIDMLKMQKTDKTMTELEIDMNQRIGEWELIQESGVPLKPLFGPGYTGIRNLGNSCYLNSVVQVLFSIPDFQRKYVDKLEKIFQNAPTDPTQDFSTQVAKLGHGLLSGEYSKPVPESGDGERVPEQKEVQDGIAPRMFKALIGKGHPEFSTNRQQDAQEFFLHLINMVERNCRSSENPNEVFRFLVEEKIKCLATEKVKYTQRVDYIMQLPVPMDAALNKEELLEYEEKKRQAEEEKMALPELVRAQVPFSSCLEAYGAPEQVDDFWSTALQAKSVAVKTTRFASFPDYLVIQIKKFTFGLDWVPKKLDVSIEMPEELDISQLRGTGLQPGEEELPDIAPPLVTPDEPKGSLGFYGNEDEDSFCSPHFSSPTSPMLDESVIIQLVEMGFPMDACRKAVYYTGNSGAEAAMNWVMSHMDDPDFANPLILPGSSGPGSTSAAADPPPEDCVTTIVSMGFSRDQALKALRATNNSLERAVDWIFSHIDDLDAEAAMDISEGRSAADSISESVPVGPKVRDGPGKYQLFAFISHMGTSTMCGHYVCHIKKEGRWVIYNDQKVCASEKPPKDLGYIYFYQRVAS

Substance | Percentage inhibition (%) (% inhibition at 10 µM) [1] | Percentage inhibition (%) (% inhibition at 10 µM) [2] | Percentage inhibition (%) (% inhibition at 10 µM) [3] | Percentage inhibition (%) (% inhibition at 10 µM) [4] | Percentage inhibition (%) (% inhibition at 10 µM) [5] | Percentage inhibition (%) (% inhibition at 10 µM) [6] | Percentage inhibition (%) (% inhibition at 10 µM) [7] | Percentage inhibition (%) (% inhibition at 10 µM) [8] | Percentage inhibition (%) (% inhibition at 10 µM) [9] | Percentage inhibition (%) (% inhibition at 10 µM) [10] | Percentage inhibition (%) (% inhibition at 10 µM) [11] | Percentage inhibition (%) (% inhibition at 10 µM) [12] | Percentage inhibition (%) (% inhibition at 10 µM) [13] | Percentage inhibition (%) (% inhibition at 10 µM) [14] | Percentage inhibition (%) (% inhibition at 1 µM) [15] | Percentage inhibition (%) (% inhibition at 10 µM) [16] | Percentage inhibition (%) (% inhibition at 10 µM) [17] | Percentage inhibition (%) (% inhibition at 10 µM) [18] | Percentage inhibition (%) (% inhibition at 10 µM) [19] | Percentage inhibition (%) (% inhibition at 10 µM) [20] | other results
Hex-[Cys(tMeBn(DOTA-AET))-Pro-Pro-Thr-Gln-Phe-Cys]-OH (3BP-3554) (peptide) | 2 | 2 | -25 | -5 | 0 | -7 | 0 | 2 | -5 | 4 | 1 | -7 | -2 | -372 | 97 | -1 | 7 | -1 | -1 | -2 | Percentage inhibition (%) (% inhibition at 10 µM) [21]: 1; Percentage inhibition (%) (% inhibition at 10 µM) [22]: -3; Percentage inhibition (%) (% inhibition at 10 µM) [23]: 0; Percentage inhibition (%) (% inhibition at 10 µM) [24]: -3; Percentage inhibition (%) (% inhibition at 10 µM) [25]: -2
Hex-[Cys(tMeBn(DOTA-PP))-Pro-Pro-Thr-Gln-Phe-Cys]-Asp-NH2 (3BP-3407) (peptide) | 5 | 36 | -24 | 0 | -4 | -3 | 5 | 2 | 2 | 4 | 6 | 2 | 8 | -68 | 98 | 3 | -5 | 5 | -2 | 3 | Percentage inhibition (%) (% inhibition at 10 µM) [21]: 8; Percentage inhibition (%) (% inhibition at 10 µM) [22]: -1; Percentage inhibition (%) (% inhibition at 10 µM) [23]: 15; Percentage inhibition (%) (% inhibition at 10 µM) [24]: 0; Percentage inhibition (%) (% inhibition at 10 µM) [25]: 46
